Details: Bacillus amyloliquefaciens, pH 6.3, 25 °C, Fluorescence, MES 450 mM, reversible: yes, whole UniProt chain shown

B1: Ribonuclease wild type, P00648 (protein)
chain: MMKMEGIALKKRLSWISVCLLVLVSAAGMLFSTAAKTETSSHKAHTEAQVINTFDGVADYLQTYHKLPDNYITKSEAQALGWVASKGNLADVAPGKSIGGDIFSNREGKLPGKSGRTWREADINYTSGFRNSDRILYSSDWLIYKTTDHYQTFTKIR
denaturant m value (GdnHCl): 4.4 kcal/mol/M
denaturant midpoint (higher = more stable) (GdnHCl): 2 M
unfolding free energy (GdnHCl): 8.8 kcal/mol
denaturant m value (Urea): 1.92 kcal/mol/M
denaturant midpoint (higher = more stable) (Urea): 4.58 M
unfolding free energy (Urea): 8.79 kcal/mol
